{
  "source": "paper doi:10.1101/2020.09.30.319905",
  "key": {"[1]": {"molecular_target": "Truncated ApoE3, residues 80-255 (central helical repeat segment) (human) (UniProt P02649)", "experiment": "SAXS"}, "[2]": {"molecular_target": "Truncated ApoE3, residues 80-255 (central helical repeat segment) (human) (UniProt P02649)", "experiment": "cross-linking"}},
  "note": "Where “and” joins values, the source holds several entries; their conditions need not be identical. Equal values may be shown once.",
  "data": [
    {"substance": "Truncated ApoE3, residues 80-255 (central helical repeat segment) (from UniProt P02649 80-255) (domain or fragment)", "values": [
      {"measurement": "stoichiometry N", "setting": "[1]", "value": 4},
      {"measurement": "stoichiometry N", "setting": "[2]", "value": "2 and 3"}
    ]}
  ]
}
